According to publication doi:10.1101/2025.08.22.671756, “Structural basis of Drosophila insulin receptor activation by DILP2 hormone” (bioRxiv, 2025):

Target: the molecule itself
Assay: cryo-EM structure; dmIR-ECD 0.2 mg/ml in SEC buffer (25 mM HEPES pH 8.0, 200 mM NaCl) incubated with 40-fold molar excess of DILP2 at room temperature for 30 min; two conformers from subsets of the particles (3.75 Å and 6.25 Å maps)

B1: Drosophila melanogaster insulin receptor ectodomain (dmIR-ECD) (domain or fragment, UniProt P09208 291-1309, looked up)
chain: LPAHQQHLLHNDIADGLDKTALSVSGTQSRWTRSESNPTMRLSQNVKPCKSMDIRNMVSHFNQLENCTVIEGFLLIDLINDASPLNRSFPKLTEVTDYIIIYRVTGLHSLSKIFPNLSVIRGNKLFDGYALVVYSNFDLMDLGLHKLRSITRGGVRIEKNHKLCYDRTIDWLEILAENETQLVVLTENGKEKECRLSKCPGEIRIEEGHDTTAIEGELNASCQLHNNRRLCWNSKLCQTKCPEKCRNNCIDEHTCCSQDCLGGCVIDKNGNESCISCRNVSFNNICMDSCPKGYYQFDSRCVTANECITLTKFETNSVYSGIPYNGQCITHCPTGYQKSENKRMCEPCPGGKCDKECSSGLIDSLERAREFHGCTIITGTEPLTISIKRESGAHVMDELKYGLAAVHKIQSSLMVHLTYGLKSLKFFQSLTEISGDPPMDADKYALYVLDNRDLDELWGPNQTVFIRKGGVFFHFNPKLCVSTINQLLPMLASKPKFFEKSDVGADSNGNRGSCGTAVLNVTLQSVGANSAMLNVTTKVEIGEPQKPSNATIVFKDPRAFIGFVFYHMIDPYGNSTKSSDDPCDDRWKVSSPEKSGVMVLSNLIPYTNYSYYVRTMAISSELTNAESDVKNFRTNPGRPSKVTEVVATAISDSKINVTWSYLDKPYGVLTRYFIKAKLINRPTRNNNRDYCTEPLVKAMENDLPATTPTKKISDPLAGDCKCVEGSKKTSSQEYDDRKVQAGMEFENALQNFIFVPNIRKSKNGSSDKSDGAEGAALDSNAIPNGGATNPSRRRRDVALEPELDDVEGSVLLRHVRSITDDTDAFFEKDDENTYKDEEDLSSNKQFYEVFAKELPPNQTHFVFEKLRHFTRYAIFVVACREEIPSEKLRDTSFKKSLCSDYDTVFQTTKRKKFADIVMDLKVDLEHANNTESPVRVRWTPPVDPNGEIVTYEVAYKLQKPDQVEEKKCIPAADFNQTAGYLIKLNEGLYSFRVRANSIAGYGDFTEVEHIKVEPPPSYA
notes: Insulin receptor (dmIR), Drosophila melanogaster, ectodomain; Expressed from codon-optimised DNA for residues 264-1309 with an added start codon; the results name the construct 291Leu-1309Ala; Described as an (αβ)2 homodimer; N-glycans are visible in the maps; also called dmIR ectodomain; 291Leu-1309Ala dmIR-ECD construct; source: Sf9 (ExpiSf9) cells, baculovirus, conditioned media, purified …
- binding result: binds
